{"source": "patent US6774212", "about": "(Bristol-Myers Squibb, dated 2004)", "molecular_target": "T1, HCV NS3 protease catalytic domain (amino acids 1 to 192), genotype 1a (Hepatitis C virus, genotype 1a, UniProt P26664 1027-1218)", "T1 construct": "domain: NS3 protease catalytic domain (amino acids 1 to 192); Expressed in E. coli BL21(DE3) and purified to >95%; also called HCV NS3 1a protease; Hepatitis C Virus NS3 protease", "T1 sequence (P26664 1027-1218)": "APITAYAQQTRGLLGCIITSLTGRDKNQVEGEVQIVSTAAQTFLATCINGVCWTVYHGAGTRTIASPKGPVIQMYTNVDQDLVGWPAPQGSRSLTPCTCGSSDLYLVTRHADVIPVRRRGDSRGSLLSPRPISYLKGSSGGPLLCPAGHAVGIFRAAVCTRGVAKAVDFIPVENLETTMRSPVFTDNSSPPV", "assay": "active-site titration of NS3 protease; linear plots of Activity vs. [inhibitor], protease concentration from the x-intercept", "note": "Square brackets hold non-standard residues; d marks the D form. Ends that are not written are not given here. * marks the point of attachment. boroAlg = alpha-aminoboronic acid analogue of L-2-amino-4-pentenoic acid (1-amino-3-butenylboronic acid, -B(OH)2 in place of -COOH), C=CC[C@H](N*)B(O)O", "data": [{"binder": "H-DEVVP[boroAlg] (Peptide boronic acid used as titrant to determine the protease concentration)", "note": "[H-Asp-Glu-Val-Val-Pro-boroAlg-OH]", "values": [{"measurement": "binding result", "value": "binds"}]}]}
